US20170362341A1

Experiments:
[1] = molecular target: CD-30 on Karpas 299 and L540 cells (UniProt P28908); test: FACS-based cell binding on L540 cells, Alexa-488 goat anti-human IgG detection, MFI normalised to the averaged maximum (% binding)
[2] = molecular target: CD-30 on Karpas 299 and L540 cells (UniProt P28908); test: flow cytometry on L540 cells, one site-total binding fit
[3] = molecular target: CD-30 on Karpas 299 and L540 cells (UniProt P28908); test: flow cytometry on Karpas 299 cells, one site-total binding fit
[4] = molecular target: CD-30 on Karpas 299 and L540 cells (UniProt P28908); test: FACS-based cell binding on Karpas 299 cells, Alexa-488 goat anti-human IgG detection, MFI normalised to the averaged maximum (% binding)
[5] = molecular target: HER2 on SKBR3 cells (UniProt P04626); test: flow cytometry on SKBR3 cells, one site specific binding fit; column head prints 'Cell Binding IC50, nM' (heads of c3 and c4 seem swapped)
[6] = molecular target: HER2 on SKBR3 cells (UniProt P04626); test: flow cytometry on SKBR3 cells

Sequence of UniProt P28908 (P28908 19-595 limits assumed): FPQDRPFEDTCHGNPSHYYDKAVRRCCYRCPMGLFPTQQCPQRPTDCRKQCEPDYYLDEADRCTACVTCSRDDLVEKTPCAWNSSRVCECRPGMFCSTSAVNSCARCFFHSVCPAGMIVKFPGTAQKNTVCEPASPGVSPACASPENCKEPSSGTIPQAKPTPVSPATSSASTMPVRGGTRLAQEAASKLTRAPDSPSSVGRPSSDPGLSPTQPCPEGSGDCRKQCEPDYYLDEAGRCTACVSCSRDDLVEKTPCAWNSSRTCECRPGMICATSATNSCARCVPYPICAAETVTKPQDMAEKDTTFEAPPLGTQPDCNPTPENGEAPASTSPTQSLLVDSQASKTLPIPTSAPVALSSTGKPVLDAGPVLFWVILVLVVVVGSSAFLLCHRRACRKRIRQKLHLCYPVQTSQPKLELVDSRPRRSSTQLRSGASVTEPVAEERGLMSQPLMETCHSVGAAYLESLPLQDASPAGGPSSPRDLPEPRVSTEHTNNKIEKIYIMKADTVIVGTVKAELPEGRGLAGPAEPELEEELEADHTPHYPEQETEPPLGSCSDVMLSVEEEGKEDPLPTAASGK

Substance	EC50 (read off the curve) [1]	Kd [2]	Kd [3]	EC50 (read off the curve) [4]	Kd [5]	Kd [6]
Adcetris HC K121 unconjugated (antibody)	0.8 nM					
Aglycosylated Brentuximab IgG HC-F404 conjugated to DBCO-MMAF 2 (antibody)	0.7 nM	0.81 nM	0.46 nM	0.3 nM		
Aglycosylated Brentuximab IgG LC-N152 conjugated to DBCO-MMAF 2 (antibody)	0.6 nM	1 nM	0.5 nM	0.4 nM		

Second part, the substance after the results:

EC50 (read off the curve) [1]	Kd [2]	Kd [3]	EC50 (read off the curve) [4]	Kd [5]	Kd [6]	Substance
1 nM						Adcetris HC F404 unconjugated (antibody)
	1.3 nM	0.52 nM	0.4 nM			Aglycosylated Brentuximab IgG HC-K121 conjugated to DBCO-MMAF 2 (antibody)
				14 nM		Trastuzumab scFv (VL_VH) with pN3F at position (-1), conjugated to DBCO-MMAF
					6.8 nM	Trastuzumab scFv-Fc (-1) pN3F conjugated to DBCO-MMAF (Fc fusion)
